According to patent US20020132974A1, “BETA SHEET FORMING PEPTIDES AND GELS MADE THEREOF” (priority 1995, published 2002):

What was measured:
[1] = response of peptide gels to chemical switches (pH, salt, surfactant, solvent); format: physicochemical
Text: As mentioned, the gels of the invention are susceptible to chemical triggers which result in changes in the properties of the gels so that they switch from, for example, a first fluid state to a gel state or vica versa.
Addition of salt causes the network to contract and phase separate as a more concentrated gel phase. Changing the polarity of the solvent, ie making it more polar (water) or non-polar ( chloroform), preserves the β-sheet structure, but the gel network is destabilised and precipitation of the peptide occurs. In strong hydrogen-bonding donor solvents (like hexafluoroisopropanol), the peptide adopts an α-helical conformation (FIG. 3b) and there is no gelation. Solvents containing arornatic groups cause destabilisation of β-tapes by 20-30% and disruption of the gels. This is believed to be due to competition between intermolecular peptide aromatic side-chain interactions and the aromatic groups of the solvent Acetylation at the N-terminus and amination at the C-temiinus of the 27-residue peptide results in a preference for the a-helical conformation and gels are not formed. It seems that favourable interactions between β-nanotapes and solvent are important for gel stabilisation. By appropriate peptide design, peptides can be produced which will form nanotapes and gels in a variety of solvents, including water. For example, peptides derived from the Drosophila Toll receptor protein, from the Alzheimer amyloid peptide and from desmin filaments and from the β-domain of the leu lysozyme (SER-1). Chemical switches also include changes in pH, for example, the hydrophilic peptide AcNH-Gln-Ala-Thr-Asn-Arg-Asn-Thr-AspGly-Ser-Thr-AspTyr-Gly-Ile-Leu-Gin-Ile-Asn-Ser-Arg-CONH2 (SER-1) forms a gel at neutral and acidic pH, whilst it switches to a neutonial fluid at pH higher than 11.

[2] = gel and β-tape formation of peptides in solvents; format: physicochemical
Text: Compatibility of the β-sheet surface and the solvent are also essential for gelation as opposed to peptide precipitation out of solution. For example, K24 forms β-tapes with both polar and apolar groups on their surfaces. Thus, they can form gels in solvents with intermediate polarity, corresponding to values of relative dielectric constants, εγ=εr=24-62.
In organic solvents such as ethanol, methanol and 2-chloroethanol we have discovered that the aforementioned peptide sequences self-assemble to provide elongated tapes approximately 8 nm wide and a single molecule in thickness.

Substance	effect of added 1,1,1,3,3,3-hexafluoropropanol-2 on the gel ([1]; addition of 50% v 1,1,1,3,3,3-hexafluoropropanol-2)	effect of added water on the gel ([1]; addition of 50% v water)	effect of sodium dodecylsulfate (SDS) on the gel ([1]; molar ratio 1 K27-350 SDS)	effect of lithium chloride on the gel ([1]; molar ratio 1 peptide-7 lithium chloride)	drop of the fraction of β-sheet structure ([1]; solvents containing aromatic groups)	gel formation in solvents of higher or lower polarity ([2]; polarity above or below dielectric constant 24-62, β-sheet structures poorly soluble, precipitate)	relative dielectric constant of solvents in which gels are formed ([2]; solvents or solvent mixtures of intermediate polarity)
NH2-Lys-Leu-Glu-Ala-Leu-Tyr-Ile-Leu-Met-Val-Leu-Cly-Phe-Phe-Gly-Phe-Phe-Thr-Leu-Gly-Ie-Met-Leu-Ser-Tyr-Ile-Arg-CO2H [K27]	destroys the gel	destroys the gel	destroys the gel	–	–	–	–
NH2-Lys-Leu-Glu-Ala-Leu-Tyr-Val-Leu-Gly-Phe-Phe-Gly-Phe-Phe-Thr-Leu-Gly-Be-Met-Leu-Ser-Tyr-Rle-Arg-CO2H [K24]	–	–	–	contracts	20-30%	gel is not formed	24-62
